# Source: the nanobody polyreactivity screen of Harvey et al. (2022)
# Assay: yeast display, Sf9 membrane polyspecificity reagent, FACS + sequencing; frameworks hold sequencing errors
# Procedure, shortened: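 In a synthetic yeast display library (Saccharomyces cerevisiae BJ5465), nanobody expression was induced with galactose for 36–48 hours. FACS gates were set low and high (top ~1%) using anti-HA fluorescence for expression and streptavidin fluorescence for binding of the Sf9 membrane reagent. Each polyreactivity label is drawn from the gate of origin.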
sequence,measurement,value
QVQLVESGGGLVQAGGSLRLSCAASGITLYNYAMGWYRQAPGTERELVAAISLSGGRTYYADSVKGRFTISRDNAKNTVYLQMNSLKPEDTAVYYCAADWLNSDPYNYWGQGTQVTVSS,polyreactivity (PSR sort gate),low polyreactivity
QVLLVESGGGLVQAGGSIRLSCDASGLTFYQNSMGWYRQAPGKERELVAAISSTRITNYADSVKVRFTLSRDNAKTPVYLQMNSLIPEDTAVYYCNADYHPFFFEFIYWGQGTQGTVSS,polyreactivity (PSR sort gate),high polyreactivity
QVQLVESGGGLVQAGGSLRLSCAASGRIFQGYVMGWYRQAPGKERELVAAITTGGSTYYADSVKGRFTISRDNAKNTVYLQMNSLKPEDTAVYYCAAKPTRSRKIYEYWGQGTQVTVSS,polyreactivity (PSR sort gate),low polyreactivity
QVQLVESGGGLVQAGGSLRLSCAASGLTFSRYAMGWYRQAPGKERELVAAISGSGGSTYYADSVKGRFTISRDNAKNTVYLQMNSLKPEDTAVYYCNKYRATNSARDYWGQGTQVTVSS,polyreactivity (PSR sort gate),high polyreactivity
QVQLVESGGGLVQAGGSLRLSCAASGRTLFRYAMGWYRQAPGKERELVAAISRSGGTTYYADSVKGRFTISRDNAKNTVYLQMNSLKPEDTAVYYCAARGRYKDGYRMDYWGQGTQVTVSS,polyreactivity (PSR sort gate),high polyreactivity
QVQLVESGGGLVQAGGSLRLSCAASGSIFKAYAMGWYRQAPGKERELVAAISTSDGSTYYADSVKGRFTISRDNAKNNVYLLMNSLKPEDTAVYYCATEYDYWDDSYDYWGQGTQVTVSS,polyreactivity (PSR sort gate),low polyreactivity
QVQLVESGGGLVQAGGSLRLSCAASRFIFSSYVMGRYRQAPGKERELVAASRSGGSTNYADSVKGRFTISRDNAKNTVYLQMNSLKPEDTAVYYCAARGRLGQGYYYWGQGTLVTVSS,polyreactivity (PSR sort gate),low polyreactivity
QVQLVESGGGLVQAGGSLRLSCAASGFIFDWNTMGWYRQAPGKERELVAAITESSGSTYYADSVKGRFTISRDNAKNTVYLQMNSLKPEDTAVYYCAADLDVYVSIGSRFHFDYWGQGTQVTVSS,polyreactivity (PSR sort gate),low polyreactivity
QVQLVESGGGLVQAGGSLRLSCDASGRTFYANDMGWYRQAPGKERELVAAISSSVTSTHYADSVKGRFTISRDNAKNTVYLQMNSLKPEDTAVYYCNKDPIREVQPPGPSEMDYWGQGTQVTVSS,polyreactivity (PSR sort gate),low polyreactivity
QVQLVESGGGLVQAGGSLRLSCAASGFIFTIYAMGWYRQAPGKERELVAAISSGGSTTYADSVKGRFTISRDNAKNTVYLQMNSLKPEDTAVYYCNADYQYNRYSRVVGGHYVGWYGYWGQGTQVTVSS,polyreactivity (PSR sort gate),low polyreactivity
QVQLVESGGGLVQAGGSLRLSCAASGSTFYTYVMGWYRQAPGKERELVAAISSGGGNTYYADTVTGRFTISRDHGKNTVYLQMNSLKPEDTAVYYCAAETFRWSDYDYWGQGTQVTVSS,polyreactivity (PSR sort gate),high polyreactivity
QVQLVESGGGLVQAGGSLRLTCAASGFIFLPYAMGWYRQAPGKERELVAAITRGGRTYYADSVKGRFTISRDNAKNTVYLQMNSLKPEDTAVYYCAATTYLVWGYNYWGQGTQVTVSS,polyreactivity (PSR sort gate),low polyreactivity
QVQLVESGGGLVQAGGSLRLSCAASGRTFQFYAMGWYRQAPGKERELVAAISSGGSTNYADSVKGRFTISRDNAKNTVYLEMNSLKPEDSAVYYCAKRPWYHADWWDDHWGQGTQVTVSS,polyreactivity (PSR sort gate),high polyreactivity
QVQLQESGGGLVQAGGSLRLSCAGSGYIFPRIYMGWYRQAPGKEREFDAGISYDAITNYADSVKGRFTISLDNAKNTVYLQMNSLKPEDTAVYYCAVSYYGTPLFTYWGQGTQVTVSS,polyreactivity (PSR sort gate),high polyreactivity
QVQLVESGGGLVQAGGSLRLSCAASGSTFTAYGMGWYRQAPGKERELVAAITWRGGRTYYADSVKGRFTISRDNAKNTVYLQMNSLKPEDTAVYYCAKGAVWRYTTKYGYDYWGQGTQVTVSS,polyreactivity (PSR sort gate),high polyreactivity
QVQLVESGGGLVQAGGSLRLSCAASGSIFRGYTMGWYIQAPGKERELVAAISTRGGSTYYADSVKGRFTISRDNSKNTVYLQMNSLKPEDTAVYYCNARSRGRASGYDYWGQGTQVTVSS,polyreactivity (PSR sort gate),high polyreactivity
QVQLVASGVGLVQAVGSLRLSCAASGITFQYYTMGWYRQAPGKERELVAAINWSGGSTYYADSVKGRFTISRDNAKNTVYLQMNSLKPEDTAVYYCNAVRFVEHDYWGQGTQVTVSS,polyreactivity (PSR sort gate),high polyreactivity
QVQLVESGGGLVQAGGSLRLSCAASGITFYSYAMGWYRQAPGKEMELVAAITRSGGSTYYADSVKGRFTISRDNAKNTVYLQMISLKPEDTAVYYCAAEEGRVFSGGYEYWGQGTQVTVSS,polyreactivity (PSR sort gate),high polyreactivity
QVQLVESGGGLVQAGVSLRLSCAASGRTFALNVMGWYRQAPGKERELVAAISRSGGSTYYAESVKGRFTISRDNAKNTVYLQMNSLKPEDTAVYYCAAATHYQSYNRRDYWGQGTQVTVSS,polyreactivity (PSR sort gate),high polyreactivity
QVQLVESGGGLVQAGGSLRLSCAASGFIFYLYAMGWYRQAPGKERELVAAISWDGGSTYYADSVKGRFTISRDNAKNTVYLQMNSLKPEDTAVYYCAADREFWWEVVYTYEYYYWGQGTQVTVSS,polyreactivity (PSR sort gate),low polyreactivity
QVQLVESGGGLVQAGGSLRLSCAASGSTFSRYAMGWYRQAPGKERELVAAISWGGNTYYADSVKGRFTISRDNAKNTVYLQMNSLKPEDTAVYYCNRYTKLYNTMDYWGQGTQVTVSS,polyreactivity (PSR sort gate),high polyreactivity
QVKLVESGGGLVQAGGSLRLSCAASGRTFASNAMGWYRQAPGKERELVADISSSGGTTYYADSVKGRFTISRDNAKNTVYLQMNSLKPEDTAVYYCAAVSSQDDPVKAWDYEYWGQGTQVTVSS,polyreactivity (PSR sort gate),low polyreactivity
QVQLVESGGGLVQAGGSLRLSCAASGFTFVAYAMGWYRQAPGKERELVAAISRRGGTTYYADSVKGRFTISRDNEKNTVYLQMNSLKPEDTAVYYCNARSNFAFYRGNWAYDYWGQGTQVTVSS,polyreactivity (PSR sort gate),high polyreactivity
QVQLVESGGGLVQAGASLRLSCAASGRTFTQYAMGWYRQAPGKERELVAAISRSGGTTYYADSVKGRFTISRENAKNTVYLQMNSLKPEDTAVYYCAARWWYRYNYDYWGQGTQVTVSS,polyreactivity (PSR sort gate),high polyreactivity
QVQLLESGDGLVQAVGSLRLSCAASGYISGYYYMGWYRQAPGKERELVAGIDAFGSSTNYADCVKGRFTISRDNAINSVYLQMNSLKPEDTAVYYCAARPDGDRLFSYWGQGTQVTVSS,polyreactivity (PSR sort gate),low polyreactivity
QVQLVESGGGLFQAGRSLRLSCAASGITFGYYGMGWYRQAPVKERELVATISQRGGSTYYAVSVKGRFTISRDNAKNTVYLQMNSLKPEDTAFYYSNADAYRYYDYDLLFHYDYWGQGTQVTVSS,polyreactivity (PSR sort gate),low polyreactivity
QVQLVESGGGLDQAGGSHRLSCAASGFTFYPNAMGWYRQAPGKERELVASINSDGSTNYADSVKGRFTISRDNAKNTVYLPMNSLIPEDTAVYYCAAGYFWGRIKYYYWVQGTQVTVSS,polyreactivity (PSR sort gate),high polyreactivity
QVQLVESGGGLVQAGGSLRLSCAASGLTFLIYAMGWYIQAPRKERELVASITGRGGSTYYADSVKGRFTISRDNAKNTVYLQMNCLKPEDTAVYYCAASLRYYGLEMDYWGQGTQVTVSS,polyreactivity (PSR sort gate),high polyreactivity
QVQLVESGGGLVQAGGSLRLSCAASGRTFGYYAMGGYRQAPGKERELVAGIRSSGGSTYYADSVKGRFTISRDHAKNTVYLKMNSLIPEDTAVYYCAARLRSYHYRYGYDYWGQGTQVTVSS,polyreactivity (PSR sort gate),high polyreactivity
QVQLQESGGGLVQAGGSQRLSCAASGTITVLYKMGRFRQAPGKEREFVASINYGTSTYYADSVKGRFTLSRDSAKNTVYLQMNSLKPEDTAVYYCAAAYRWQDVYRYWGQGTQVTVSS,polyreactivity (PSR sort gate),low polyreactivity
QVQLVESGGGLVQAGGSLRLSCAASGSTFQYYPMGWYRQAPGKERELVAAISYRGSTYYADSVKGRFTISRDNAKNTVYLQMNRLKPEDTSVYYCAKGGTTWYWSGYRSIYFRYDYWGQGTQVTVSS,polyreactivity (PSR sort gate),high polyreactivity
QVQLVESGGGLVQAGGSLRLSCAASGRIFSRYAMGWYRKAPGKERELVAAITQSGTSTYYADSVKGRFTFSRDNAKNTVYLQMNCLKPEDTAVYYCNAYRQYRYDYWGQGTQVTVSS,polyreactivity (PSR sort gate),low polyreactivity
QVQLVESGGGLVQAGGSLRLSCAASGVTFNYNAMGWYRQAPGKERELVATITGSTYYADSVKGRFTISRDNAKNTVYLQMNSLKPEDTAVYYCTADASLVLAEYDYWGQGTQVTVSS,polyreactivity (PSR sort gate),low polyreactivity
QVQLVESGGGLVQAGGSLRLSCAASGSIFRINDMGWSRQAPGKERELVAAITFSGGSTYADSVKGRFTISRDNAKNTVYLQMNSLKPEDTAVYYCNADGAYWTDYYLYDYWGQGTQVTVSS,polyreactivity (PSR sort gate),low polyreactivity
QVQLVESAGGLVQAGGSLRLSCAASGRIFHKNAMGWYRQAPGKERELVATINYGGSSTYYADSVKGRFTISRDNAKNTVYLQMNSLKPEDTAVYYCAAAPEYLTDHAYWGQGTQVTVSS,polyreactivity (PSR sort gate),low polyreactivity
QVQLVESGGGLVQAGGSLRLSCAASGRIFFKNAMGWYRQAPGKERELVAAITWSGGRTYYADSVKGRFTISRDNAKNTVYLQMNSLKPEDTAVYYCNALAPSPYDWGQGTQVTVSS,polyreactivity (PSR sort gate),high polyreactivity
QVQLVESGGGLVQAGGSLRLSCAASGFTFWANAMGWYRQAPGKERELVAAISWSGGSTTYADSVKGRFTISRDNAKNTVYLQMNSLKPEDTAVYYCATDYGHYVTYRLSDYWGQGTQVTVSS,polyreactivity (PSR sort gate),low polyreactivity
QVHLVESGGGLVQAGGSLRLSCAASGSIFNVNAMGWYRQAPGKERELVAAISSGGDTYYADSVKGRFTISRDNAKNTVYLQMNCLKPEDTAVYYCAKQSYTLYTLLYDYWGQGTQVTVSS,polyreactivity (PSR sort gate),low polyreactivity
QVQLVESGGGLVQAGGSLRLSCAASGFIFVRYAMGWSRPAPGKERELVDAISGSGGRTYYADSVKGRFTISRDNAKNTVYLQMNSLIPEDTAVYYCNVKSYTYGYLPYDYWGQGTQVTVSS,polyreactivity (PSR sort gate),high polyreactivity
QVQLVESGGGLVQAGGSLRLSCAASGLIFYINAMGWYRQAPGKERELVAVISGGGSTNYADSVKGRFTISRDNAKNTVYLQMNSLKPEDTAVYYCNARRSHSYRHYDYWGQGTQVTVSS,polyreactivity (PSR sort gate),low polyreactivity
QFQLVESGGGLVQAGGSLRLSCAASGSIFIYYAMGWYRQAPGKEREFVAAITRSGGSTFYADSVKGRFTISRDNAKNTVYLQMNSLKPEDTAVYYCATSYEGYYSIIGNKYDYWGQGTQVTVSS,polyreactivity (PSR sort gate),high polyreactivity
QVQLVESGGGLVQAGGSLRLSCAASGRNLVQYTMGWYRQAPGKERELVAVISWRECRTYYADSVKGRFTISRDNAKNTVFLQMNSLKPVDTAVYYCATSGSFWQRYYWGQGTQVTVSS,polyreactivity (PSR sort gate),low polyreactivity
QVQLVESGGGLVQAGGSLRLSCAASGYIFERNAMGWYRQAPGKERELVAAITDDGDDTYYADSVKGRFTISRDNAKNTVYLQMNSLKPEETAVYYCAKDLYYGDYYYWGQGTQVTVSS,polyreactivity (PSR sort gate),low polyreactivity
